Our source for the Kd values is patent US8618251.

pKd: −log10 of the molar value.

The target of one experiment is C1q (Calbiochem) (UniProt P02745). As to the kind of experiment: SPR (Biacore T100), steady-state affinity; antibody immobilised on CM5 chip, C1q injected. In general terms: SPR reads the build-up and loss of mass on a sensor chip optically.
Experiment [1] deals with soluble hFcγRIIA^131R (human) (UniProt P12318). As to the kind of experiment: SPR (Biacore T100), steady-state affinity; antibody immobilised on CM5 chip, soluble receptor injected.
Experiment [2] addresses soluble hFcγRIIA^131H (human) (UniProt P12318). Described as above.
The target in experiment [3] is soluble hFcγRIIIA FV (human) (UniProt P08637). As to the kind of experiment: SPR (Biacore T100), steady-state affinity; antibody immobilised on CM5 chip, soluble receptor injected; column head hRIIIA158F, whose values for IEAL, ALEV and LLLFET are those of the hRIIIA FV column of Table 1.
soluble hFcγRIIIA FV (human), sequence (P08637 17-208 F176V): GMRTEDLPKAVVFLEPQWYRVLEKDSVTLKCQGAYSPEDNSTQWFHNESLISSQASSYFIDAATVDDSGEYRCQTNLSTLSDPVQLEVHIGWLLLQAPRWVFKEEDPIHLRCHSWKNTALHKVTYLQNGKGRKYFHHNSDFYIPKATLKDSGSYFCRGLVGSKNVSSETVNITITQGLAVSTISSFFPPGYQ

soluble hFcγRIIA^131H (human), sequence (P12318 34-217): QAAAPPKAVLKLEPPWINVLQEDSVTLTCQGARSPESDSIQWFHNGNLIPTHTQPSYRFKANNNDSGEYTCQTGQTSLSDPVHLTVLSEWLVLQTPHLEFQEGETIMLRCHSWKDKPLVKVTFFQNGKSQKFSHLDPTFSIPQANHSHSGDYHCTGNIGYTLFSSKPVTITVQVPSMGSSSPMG
C1q (Calbiochem), sequence (P02745 23-245 limits assumed, chain 1 of 3): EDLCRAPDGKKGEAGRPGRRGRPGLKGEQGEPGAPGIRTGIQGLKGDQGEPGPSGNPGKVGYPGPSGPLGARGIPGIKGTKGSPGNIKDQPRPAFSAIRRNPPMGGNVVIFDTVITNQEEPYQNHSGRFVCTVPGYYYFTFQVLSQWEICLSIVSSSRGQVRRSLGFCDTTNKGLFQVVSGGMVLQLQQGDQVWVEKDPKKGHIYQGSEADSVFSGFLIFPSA
C1q (Calbiochem), sequence (P02746 28-253 limits assumed, chain 2 of 3, further chain): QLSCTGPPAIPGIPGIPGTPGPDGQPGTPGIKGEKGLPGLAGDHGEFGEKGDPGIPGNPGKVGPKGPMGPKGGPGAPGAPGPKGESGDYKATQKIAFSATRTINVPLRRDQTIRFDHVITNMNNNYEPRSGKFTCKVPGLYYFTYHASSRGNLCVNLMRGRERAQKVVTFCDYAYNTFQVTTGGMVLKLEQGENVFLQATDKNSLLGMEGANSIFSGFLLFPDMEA
C1q (Calbiochem), sequence (P02747 29-245 limits assumed, chain 3 of 3, further chain): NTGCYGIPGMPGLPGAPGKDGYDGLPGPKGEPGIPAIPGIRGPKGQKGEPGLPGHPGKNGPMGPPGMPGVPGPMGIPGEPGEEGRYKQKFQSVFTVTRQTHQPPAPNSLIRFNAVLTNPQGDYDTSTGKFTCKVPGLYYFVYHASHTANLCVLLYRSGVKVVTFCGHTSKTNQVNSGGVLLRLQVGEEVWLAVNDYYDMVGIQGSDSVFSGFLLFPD
soluble hFcγRIIA^131R (human), sequence (P12318 34-217 H167R): as the sequence (P12318 34-217) above, with H134R counted along it

Usually pKd stands for the Kd on a negative log10 scale, so that one unit is a factor of ten. The low end stands for a large Kd, the high end for a small Kd. Take “4-4-20 hIgG1 with unmodified human IgG1 Fc (antibody)”: the pKd with C1q (Calbiochem) was 6.54; in experiment [1], 5.32; in experiment [2] it was 5.37; in experiment [3], 5.46.
